The text below walks through data of US20210169980A1 (HONG KONG UNIVERSITY OF SCIENCE AND TECHNOLOGY, published 2021).

Like-named read-outs stand apart in the source and are kept apart here.

What is called Kd is the free concentration of one partner at which half of the binding sites on the other are occupied at equilibrium, for simple one-to-one binding. Higher therefore signals a looser complex.

The target of test [1] is T1, LGG-2 (C. elegans, UniProt Q23536 1-130, limits assumed).
T1 construct: also called worm orthologue of LC3
T1 sequence (looked up): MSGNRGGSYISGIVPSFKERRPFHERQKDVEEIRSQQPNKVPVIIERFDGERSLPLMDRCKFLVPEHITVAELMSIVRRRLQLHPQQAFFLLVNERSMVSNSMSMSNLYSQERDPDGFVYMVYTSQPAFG
Briefly: ITC. In general terms: Isothermal titration calorimetry measures the heat released or taken up as one component is titrated into another.

The target of test [2] is T2, LC3B (human, UniProt Q9GZQ8 1-125). As to the kind of experiment: ITC.
In test [3] the target is T3, LC3C (human, UniProt Q9BXW4 1-126). As to the kind of experiment: ITC.
Test [4] deals with GABARAP R67E. As to the kind of experiment: ITC.
Test [5] concerns the target LC3A R70E. Briefly: ITC.
In test [6] the target is T4, LC3A (human, UniProt Q9H492 1-121). As to the kind of experiment: ITC.
For test [7], the target named is T2, LC3B. As to the kind of experiment: ITC (table of Kd values).
Test [8] concerns the target T5, LGG-1 (C. elegans, UniProt Q09490 1-123, limits assumed).
T5 construct: Purified protein in the ITC; also called worm orthologue of GABARAP
Briefly: ITC (table of Kd values).

The next test concerns the target [..]1 (human, UniProt Q9H0R8 1-117). Briefly: competition-based ITC (asterisk; legend paragraph 51).
The target in test [9] is T6, GABARAPL2 (human, UniProt P60520 1-117, limits assumed).
T6 construct: also called GATE-16
The test is described as above.

For test [10], the target named is T5, LGG-1. Briefly: ITC.
Test [11] concerns the target T7, GABARAP (human, UniProt O95166 1-117, limits assumed).
T7 construct: elsewhere only "mammalian"
As to the kind of experiment: ITC.

The target in test [12] is T7, GABARAP. As to the kind of experiment: ITC (table of Kd values).
Test [13] deals with T7, GABARAP. Briefly: ITC; without the C-helix extension (LIR-S, aa 448-461).
Test [14] concerns the target T6, GABARAPL2. As to the kind of experiment: ITC.
For test [15], the target named is T7, GABARAP. As to the kind of experiment: ITC. The source holds these as a separate data set.
Test [16] has as its target T4, LC3A. Briefly: ITC. The source holds these as a separate data set.
Test [17] concerns the target T2, LC3B. As to the kind of experiment: ITC. This is another data set of the same source.
Test [18] addresses T3, LC3C. As to the kind of experiment: ITC. The source holds these as a separate data set.
Test [19] addresses GABARAP R67E. Briefly: ITC. This is another data set of the same source.
In test [20] the target is LC3A R70E. Briefly: ITC. This is another data set of the same source.
Test [21] addresses T4, LC3A. As to the kind of experiment: ITC. This is another data set of the same source.
In test [22] the target is T1, LGG-2. Briefly: ITC (table of Kd values).
Test [23] concerns the target T7, GABARAP. Briefly: ITC. This is another data set of the same source.
The target in test [24] is T4, LC3A. As to the kind of experiment: ITC. The source holds these as a separate data set.
Test [25] has as its target T7, GABARAP. Briefly: ITC; ratio of the binding to GABARAP against that to LC3A.

T5 sequence (Q09490 whole entry): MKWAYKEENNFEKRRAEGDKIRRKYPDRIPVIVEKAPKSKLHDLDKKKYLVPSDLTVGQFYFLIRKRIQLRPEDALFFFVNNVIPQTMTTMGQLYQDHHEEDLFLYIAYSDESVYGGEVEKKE
T7 sequence (O95166 whole entry): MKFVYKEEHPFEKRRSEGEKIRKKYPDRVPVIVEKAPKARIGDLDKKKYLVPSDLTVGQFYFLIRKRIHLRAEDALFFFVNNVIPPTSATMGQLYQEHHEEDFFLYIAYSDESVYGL
Chain of LC3A R70E (chain, as listed by the source R70E R70E limits assumed): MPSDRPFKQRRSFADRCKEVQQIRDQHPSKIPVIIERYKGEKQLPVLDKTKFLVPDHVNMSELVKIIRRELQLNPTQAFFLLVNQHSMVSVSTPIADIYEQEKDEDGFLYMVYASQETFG
T6 sequence (P60520 whole entry): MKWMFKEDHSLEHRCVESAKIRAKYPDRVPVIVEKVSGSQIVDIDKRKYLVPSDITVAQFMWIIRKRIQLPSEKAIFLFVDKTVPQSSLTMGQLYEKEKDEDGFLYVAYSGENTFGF
Chain of GABARAP R67E (chain, as listed by the source R67E R67E limits assumed): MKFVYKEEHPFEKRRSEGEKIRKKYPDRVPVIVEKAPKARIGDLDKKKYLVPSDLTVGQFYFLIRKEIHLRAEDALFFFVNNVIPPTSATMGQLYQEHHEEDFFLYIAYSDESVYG
T3 sequence (Q9BXW4 1-126, form in doubt): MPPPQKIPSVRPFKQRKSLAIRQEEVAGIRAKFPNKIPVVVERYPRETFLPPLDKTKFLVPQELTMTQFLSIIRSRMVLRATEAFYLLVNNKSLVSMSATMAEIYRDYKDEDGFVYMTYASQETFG
Chain of [..]1 (Q9H0R8 whole entry): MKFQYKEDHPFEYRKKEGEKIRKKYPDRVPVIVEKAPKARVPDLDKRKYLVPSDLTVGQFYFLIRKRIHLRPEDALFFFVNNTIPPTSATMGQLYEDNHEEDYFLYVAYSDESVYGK

B1: AnkB LIR (AnkB WT peptide, human 440 kD AnkB residues 1588-1614) (peptide)
peptide: VEEEWVIVSDEEIEEARQKAPLEITEY
Turning to B1, in the test with LGG-2 [1], the binding result is “binds”. The equilibrium dissociation constant (Kd) in the test with LC3B [2] is 4.2 nM; in the test with LC3C [3], 10.5 nM; with GABARAP R67E [4] it was 56 nM; with LC3A R70E [5], 860 nM; with LC3A [6], 3.6 nM; in the test with LC3B [7], 4.2 nM. Besides, the Kd is 1.2 nM with LGG-1 [8], 0.29 nM in test [..]1 and 0.21 nM in the test with GABARAPL2 [9].

B2: AnkB W1592R (peptide)
peptide: VEEERVIVSDEEIEEARQKAPLEITEY
notes: also called AnkB WR; Trp1592Arg mutant of AnkB LIR
With B2, the binding result in the test with LGG-1 [10] and with LGG-2 [1] was “no binding” throughout. Also, the Kd with LC3A [6] is roughly 26600 nM; with GABARAP [11], greater than 100000 nM; in the test with GABARAP [12] it was greater than 100000 nM.

B3: E1599R (peptide)
peptide: VEEEWVIVSDERIEEARQKAPLEITEY
notes: also called AnkB E1599R
With B3, the Kd was 312 nM with LC3A [6] and 38 nM in the test with GABARAP [11].

B4: human FAM134B LIR without the C-helix extension (LIR-S, aa 448-461) (peptide, UniProt Q9H6L5 448-461, looked up)
peptide: DTEEGDDFELLDQS
notes: range 448-461; also called FAM134B LIR-S
B4 registered a Kd in the test with GABARAP [13] of 704 nM.

B5: AnkG LIR (AnkG WT peptide, rat 480 kD AnkG residues 1985-2010) (peptide)
peptide: PEDDWTEFSSEEIREARQAAASHAPS
Take B5: the Kd in the test with GABARAPL2 [14] is roughly 40 nM; in the test with GABARAP [15], roughly 2.6 nM; with LC3A [16], 546 nM; with LC3B [17], 339 nM; with LC3C [18] it was 2930 nM; with GABARAP R67E [19] it was 114 nM. The Kd is 546 nM in the test with LC3A [21], 339 nM with LC3B [7], 1.6 nM with LGG-1 [8] and 210 nM with LGG-2 [22]. The binding result with LC3A R70E [20] was “no binding”.

B6: E1996R (peptide)
peptide: PEDDWTEFSSERIREARQAAASHAPS
notes: also called AnkG E1996R
As for B6, the Kd with LC3A [21] was roughly 100000 nM; with GABARAP [23], 398 nM.

B7: W1989R (peptide)
peptide: PEDDRTEFSSEEIREARQAAASHAPS
notes: Untagged peptide used in ITC; m22 is its mCherry fusion; also called AnkG W1989R; AnkG WR
Consider B7, for which the binding result in the test with LC3A [21], in the test with LC3B [7], with LGG-1 [8] and in the test with LGG-2 [22] was “no binding” throughout. The equilibrium dissociation constant (Kd) in the test with GABARAP [23] was roughly 12800 nM.

B8: AnkG E1991R (modified from rat 480 kD AnkG residues 1985-2010) (peptide)
peptide: PEDDWTRFSSEEIREARQAAASHAPS
notes: also called AnkG ER; Glu1991Arg AnkG LIR
On to B8, for which, in the test with LC3A [24], the “fold lower affinity against AnkG LIR WT” value is roughly 10 fold. Further, the “fold weaker binding against LGG-1” value in the test with LGG-2 [1] is roughly 1000 fold. Further, the Kd came out at 7190 nM in the test with LC3A [21], 6.9 nM with GABARAP [23], 8.5 nM with LGG-1 [8] and 8470 nM with LGG-2 [22]. Moreover, the “selectivity between GABARAP and LC3A” value in the test with GABARAP [25] is roughly 1000 fold.

B9: I1997Q (peptide)
peptide: PEDDWTEFSSEEQREARQAAASHAPS
notes: also called AnkG I1997Q
With B9, the Kd was roughly 12500 nM with LC3A [21] and 68 nM in the test with GABARAP [23].

B10: A2000Q (peptide)
peptide: PEDDWTEFSSEEIREQRQAAASHAPS
notes: also called AnkG A2000Q
As to B10, the Kd came out at 8200 nM with LC3A [21] and 741 nM with GABARAP [23].

B11: AnkG LIR construct "1985-2000" (aa 2001-2010 truncated) (peptide)
peptide: PEDDWTEFSSEEIREA
In the case of B11, in the test with GABARAP [15], the “fold decrease of binding against AnkG LIR (aa 1985-2010)” value is roughly 200 fold. Further, the figures for the Kd with LC3A [21] and with GABARAP [23] were 7410 nM and 510 nM, respectively.

B12: AnkG LIR C-helix alone (aa 1993-2010) (peptide)
peptide: SSEEIREARQAAASHAPS
With B12, the binding result with GABARAP [15] and with LC3A [21] was “no binding” in each case.
